Assay results as given in article PMC1838920.

Biological target: T1, His6-CIII (bacteriophage lambda CIII) (bacteriophage lambda), P03044
T1 chain: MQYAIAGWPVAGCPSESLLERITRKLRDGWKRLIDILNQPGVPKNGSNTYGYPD
Experiment: cross-linking; 10 µM His6-CIII in PBS with 0.1 mg/ml BSA at 42°C, 0.25% glutaraldehyde for 1 or 5 minutes, stopped by 200 mM glycine; NuPAGE and western blot against the His6 tag
Conditions: remark: other sources report otherwise

B1: His6-CIII (bacteriophage lambda CIII), P03044 1-54 (natural protein)
chain: MQYAIAGWPVAGCPSESLLERITRKLRDGWKRLIDILNQPGVPKNGSNTYGYPD
B1 showed a stoichiometry N of under 12.
